In the RNAGym collection of RNA variant scans (doi:10.1093/molbev/msab373):

B1: Azoarcus group I ribozyme (parent)
chain: GUGCCUUGCGCCGGGAAACCACGCAAGGGAUGGUGUCAAAUUCGGCGAAACCUAAGCGCCCGCCCGGGCGUAUGGCAACGCCGAGCCAAGCUUCGGCGCCUGCGCCGAUGAAGGUGUAGAGACUAGACGGCACCCACCUAAGGCAAACGCUAUGGUGAAGGCAUAGUCCAGGGAGUGGCGAAAGUCACACAAACCGG

Variants of: B1
Assay: reverse-splicing fitness (ratio to wild type); higher = more active; in vitro selection; Mg2+ level not given
How it was run: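 An in vitro group I ribozyme library with randomized positions was T7-transcribed and gel-purified. In triplicate, 10 pmol RNA in EPPS pH 7.5 was reacted with 50 pmoles of a 30-nt RNA substrate for 1 h at 37 °C across several added MgCl2 levels (1–48 mM), then stopped with EDTA. Products were reverse transcribed from a substrate-complementary primer, PCR-amplified and sequenced (HiSeq 4000). Fitness is a variant's read proportion after selection over that before, normalised to wild type.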

Variant	reverse-splicing fitness
C82A A111G A120C A145U C150A U176A	0.012
C82A A111G A120C A145U C150A U176C	0.0198
C82A A111G A120C A145U C150A U176G	0.00739
C82A A111G A120C A145U C150G	0.011
C82A A111G A120C A145U C150G C169A	0.00895
C82A A111G A120C A145U C150G C169A U176A	0.011
C82A A111G A120C A145U C150G C169A U176C	0.0114
C82A A111G A120C A145U C150G C169A U176G	0.00597
C82A A111G A120C A145U C150G C169G	0.0075
C82A A111G A120C A145U C150G C169G U176A	0.00801
C82A A111G A120C A145U C150G C169G U176C	0.00564
C82A A111G A120C A145U C150G C169G U176G	0.00589
C82A A111G A120C A145U C150G C169U	0.00884
C82A A111G A120C A145U C150G C169U U176A	0.00666
C82A A111G A120C A145U C150G C169U U176C	0.0102
C82A A111G A120C A145U C150G C169U U176G	0.00564
C82A A111G A120C A145U C150G U176A	0.00605
C82A A111G A120C A145U C150G U176C	0.00993
C82A A111G A120C A145U C150G U176G	0.00395
C82A A111G A120C A145U C150U	0.0296
C82A A111G A120C A145U C150U C169A	0.0102

Variant	reverse-splicing fitness
C82A A111G A120C A145U C150U C169A U176A	0.0157
C82A A111G A120C A145U C150U C169A U176C	0.0127
C82A A111G A120C A145U C150U C169A U176G	0.00591
C82A A111G A120C A145U C150U C169G	0.00921
C82A A111G A120C A145U C150U C169G U176A	0.0145
C82A A111G A120C A145U C150U C169G U176C	0.0191
C82A A111G A120C A145U C150U C169G U176G	0.00539
C82A A111G A120C A145U C150U C169U	0.0117
C82A A111G A120C A145U C150U C169U U176A	0.0144
C82A A111G A120C A145U C150U C169U U176C	0.0124
C82A A111G A120C A145U C150U C169U U176G	0.00546
C82A A111G A120C A145U C150U U176A	0.0145
C82A A111G A120C A145U C150U U176C	0.0248
C82A A111G A120C A145U C150U U176G	0.00709
C82A A111G A120C A145U C169A	0.00859
C82A A111G A120C A145U C169A U176A	0.0138
C82A A111G A120C A145U C169A U176C	0.0152
C82A A111G A120C A145U C169A U176G	0.00526
C82A A111G A120C A145U C169G	0.00967
C82A A111G A120C A145U C169G U176A	0.0135
C82A A111G A120C A145U C169G U176C	0.0172

Variant	reverse-splicing fitness
C82A A111G A120C A145U C169G U176G	0.00526
C82A A111G A120C A145U C169U	0.0135
C82A A111G A120C A145U C169U U176A	0.0152
C82A A111G A120C A145U C169U U176C	0.0131
C82A A111G A120C A145U C169U U176G	0.00505
C82A A111G A120C A145U U176A	0.0171
C82A A111G A120C A145U U176C	0.0247
C82A A111G A120C A145U U176G	0.00629
C82A A111G A120C C150A	0.0162
C82A A111G A120C C150A C169A	0.0113
C82A A111G A120C C150A C169A U176A	0.0277
C82A A111G A120C C150A C169A U176C	0.0231
C82A A111G A120C C150A C169A U176G	0.00754
C82A A111G A120C C150A C169G	0.00973
C82A A111G A120C C150A C169G U176A	0.0219
C82A A111G A120C C150A C169G U176C	0.0256
C82A A111G A120C C150A C169G U176G	0.00675
C82A A111G A120C C150A C169U	0.011
C82A A111G A120C C150A C169U U176A	0.0162
C82A A111G A120C C150A C169U U176C	0.0133
C82A A111G A120C C150A C169U U176G	0.00938

Variant	reverse-splicing fitness
C82A A111G A120C C150A U176A	0.0133
C82A A111G A120C C150A U176C	0.0223
C82A A111G A120C C150A U176G	0.0115
C82A A111G A120C C150G	0.0106
C82A A111G A120C C150G C169A	0.00992
C82A A111G A120C C150G C169A U176A	0.0116
C82A A111G A120C C150G C169A U176C	0.0139
C82A A111G A120C C150G C169A U176G	0.00791
C82A A111G A120C C150G C169G	0.00727
C82A A111G A120C C150G C169G U176A	0.00731
C82A A111G A120C C150G C169G U176C	0.00485
C82A A111G A120C C150G C169G U176G	0.00561
C82A A111G A120C C150G C169U	0.00991
C82A A111G A120C C150G C169U U176A	0.00701
C82A A111G A120C C150G C169U U176C	0.0107
C82A A111G A120C C150G C169U U176G	0.00651
C82A A111G A120C C150G U176A	0.0064
C82A A111G A120C C150G U176C	0.00892
C82A A111G A120C C150G U176G	0.00391
C82A A111G A120C C150U	0.0279
